In PMC6805918, “Extracellular pyridine nucleotides trigger plant systemic immunity through a lectin receptor kinase/BAK1 complex” (Nature Communications, 2019):

Target: T1, GST-BAK1KD (cytoplasmic kinase domain of BAK1, AAs 250-615, fused to GST) (Arabidopsis thaliana, UniProt Q94F62 250-615)
T1 construct: BRASSINOSTEROID …1-ASSOCIATED KINASE1 (BAK1), Arabidopsis thaliana, cytoplasmic kinase domain, amino acids 250-615; Cloned into the EcoRI/SalI site of pGEX-4T-1; source: E. coli BL21(DE3), purified; not shown: GST, N-terminal, kept
T1 sequence (looked up): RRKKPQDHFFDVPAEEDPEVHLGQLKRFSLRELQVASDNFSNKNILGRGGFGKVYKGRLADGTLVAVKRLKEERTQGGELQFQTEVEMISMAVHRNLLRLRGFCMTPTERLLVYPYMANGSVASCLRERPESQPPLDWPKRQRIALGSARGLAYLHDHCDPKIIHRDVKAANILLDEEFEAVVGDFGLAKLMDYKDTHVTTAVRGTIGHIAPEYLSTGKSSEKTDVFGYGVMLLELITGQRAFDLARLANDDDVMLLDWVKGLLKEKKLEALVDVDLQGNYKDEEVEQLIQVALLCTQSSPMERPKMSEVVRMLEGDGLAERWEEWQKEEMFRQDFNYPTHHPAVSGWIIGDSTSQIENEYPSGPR
Assay: pull-down; 1 μg MBP or MBP-LecRK-VI.2KD incubated with 1 μg GST-BAK1KD in 20 mM Tris-HCl, 200 mM NaCl, 1 mM EDTA, pH 7.4, 4 °C; pulled down with amylose resin beads; washes with 0.6% Triton X-100; immunoblot with anti-MBP and anti-GST
Details: both partners purified

B1: MBP-LecRK-VI.2KD (cytoplasmic kinase domain of LecRK-VI.2, AAs 331-682, fused to maltose-binding protein) (domain or fragment, Arabidopsis thaliana, UniProt Q9M021 331-682, looked up)
chain: FVMYKKRLGQEETLEDWEIDHPRRLRYRDLYVATDGFKKTGIIGTGGFGTVFKGKLPNSDPIAVKKIIPSSRQGVREFVAEIESLGKLRHKNLVNLQGWCKHKNDLLLIYDYIPNGSLDSLLYTVPRRSGAVLSWNARFQIAKGIASGLLYLHEEWEKIVIHRDVKPSNVLIDSKMNPRLGDFGLARLYERGTLSETTALVGTIGYMAPELSRNGNPSSASDVFAFGVLLLEIVCGRKPTDSGTFFLVDWVMELHANGEILSAIDPRLGSGYDGGEARLALAVGLLCCHQKPASRPSMRIVLRYLNGEENVPEIDDEWGYSKSSRSEFGSKLVGYVSSTSITRVSSTSRISQ
notes: lectin receptor kinase LecRK-VI.2, Arabidopsis thaliana, gene At5g01540, cytoplasmic kinase domain, amino acids 331-682; Cloned into the BamHI/SalI site of pMAL-p2X; source: E. coli BL21(DE3), purified; not shown: MBP, N-terminal, kept
binding result: binds
